Measured values taken from PMC6105727, “Architecture of the native major royal jelly protein 1 oligomer” (Nature Communications, 2018).

What was measured:
[1] = molecular target: T1, MRJP1 oligomer (MRJP1_4-apisimin4-24-methylenecholesterol8 complex) (Apis mellifera, UniProt O18330+Q8ISL8); assay: X-ray crystal structure at […] Å; co-purified ligand identified by GC-MS and NMR; format: binding; conditions: co-purified natural ligand; eight per complex (four per asymmetric unit); inner two contact MRJP1 and apisimin, outer two apisimin only; crystals at pH 8.5
T1 construct: native complex purified from royal jelly; mature chains without signal peptides; partly deglycosylated with PNGase F (NAG left at Asn144); modelled MRJP1 23-432 and 28-432, apisimin 37-77 and 36-78; 254 kDa by AUC
T1 sequence (O18330 20-432): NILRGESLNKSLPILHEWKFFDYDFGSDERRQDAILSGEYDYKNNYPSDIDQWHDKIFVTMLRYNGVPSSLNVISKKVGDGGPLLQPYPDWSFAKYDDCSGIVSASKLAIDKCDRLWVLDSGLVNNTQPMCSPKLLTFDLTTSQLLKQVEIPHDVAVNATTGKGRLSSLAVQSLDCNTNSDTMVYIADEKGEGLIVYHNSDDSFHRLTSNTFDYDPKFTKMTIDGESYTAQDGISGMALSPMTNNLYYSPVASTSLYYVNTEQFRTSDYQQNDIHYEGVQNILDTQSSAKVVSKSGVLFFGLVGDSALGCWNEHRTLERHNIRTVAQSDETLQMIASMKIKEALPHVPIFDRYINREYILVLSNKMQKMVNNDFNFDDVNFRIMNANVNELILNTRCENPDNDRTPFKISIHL
T1 sequence (Q8ISL8 25-78): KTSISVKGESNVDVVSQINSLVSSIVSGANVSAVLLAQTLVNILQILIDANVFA

[2] = molecular target: T2, Major royal jelly protein 1 (Apis mellifera, UniProt O18330 20-432, N-acetylglucosamine linked to Asn144 (seen in the crystal after partial deglycosylation); native glycoprotein); assay: SEC + other: SAXS; purified native MRJP1 oligomer at near-neutral pH; SAXS in 20 mM sodium phosphate pH 8, 150 mM NaCl, 0.1-10 mg/mL
T2 construct: Major royal jelly protein 1 (MRJP1) of the honeybee Apis mellifera; mature protein without N-terminal signal peptide; modelled residues 23-432 (protomer A) and 28-432 (protomer B); Native protein; occurs in royal jelly as a monomer fraction and as an oligomer with apisimin and 24-methylenecholesterol; also called MRJP1; royalactin (the monomer); source: purified from royal jelly (ultrafiltration, …)
T2 sequence (looked up): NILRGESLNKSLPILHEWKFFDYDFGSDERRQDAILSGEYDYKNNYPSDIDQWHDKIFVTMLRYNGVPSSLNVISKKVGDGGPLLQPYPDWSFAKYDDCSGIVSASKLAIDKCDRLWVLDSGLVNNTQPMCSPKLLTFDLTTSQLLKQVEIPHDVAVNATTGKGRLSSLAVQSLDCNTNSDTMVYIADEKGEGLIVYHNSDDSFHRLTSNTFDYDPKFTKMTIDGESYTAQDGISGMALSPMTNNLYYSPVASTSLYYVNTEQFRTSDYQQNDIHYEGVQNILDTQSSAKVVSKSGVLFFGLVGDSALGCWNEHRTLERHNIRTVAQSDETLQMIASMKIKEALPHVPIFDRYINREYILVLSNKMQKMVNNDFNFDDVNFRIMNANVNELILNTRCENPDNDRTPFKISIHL

[3] = molecular target: T2, Major royal jelly protein 1; assay: SEC; gel filtration of royal jelly collected from the nectar of different plants and from different honeybee species (Supplementary Fig. 10A, B)
[4] = molecular target: T2, Major royal jelly protein 1; assay: crystal structure; native MRJP1 oligomer from royal jelly, deglycosylated with PNGase F; hanging drop, 0.1 M Tris pH 8.5, 2.0 M ammonium phosphate; 2.65 Å, space group H32
[5] = molecular target: Major royal jelly protein 1 of Apis cerana (Apis cerana); assay: SEC; gel filtration of royal jelly collected from the nectar of different plants and from different honeybee species (Supplementary Fig. 10A, B)
[6] = molecular target: the molecule itself; assay: crystal structure; native MRJP1 oligomer from royal jelly, deglycosylated with PNGase F; hanging drop, 0.1 M Tris pH 8.5, 2.0 M ammonium phosphate; 2.65 Å, space group H32

In the case of C=C(CC[C@@H](C)[C@H]1CC[C@H]2[C@@H]3CC=C4C[C@@H](O)CC[C@]4(C)[C@H]3CC[C@]12C)C(C)C [Osl, 24-methylenecholesterol], the “X-ray crystal structure at 2.65 Å; co-purified ligand identified by GC-MS and NM” value [1] is reported as “The asymmetric unit contains two MRJP1, two apisimin, four unexpected 24-methylenecholesterol (ostreasterol, Osl)”.

“Major royal jelly protein 1 (from UniProt O18330 20-432) (natural protein)” showed a stoichiometry N [2] of 4, a stoichiometry N [3] of 4 and a stoichiometry N [4] of 4.

Work on “Major royal jelly protein 1 of Apis cerana (natural protein)” yielded a stoichiometry N [5] of 4.

B1: apisimin (peptide, UniProt Q8ISL8 25-78, looked up)
chain: KTSISVKGESNVDVVSQINSLVSSIVSGANVSAVLLAQTLVNILQILIDANVFA
notes: Apisimin, serine-valine-rich peptide of the honeybee; mature protein without N-terminal signal peptide; modelled residues 37-77 (protomer C) and 36-78 (protomer D); source: co-purified with the native MRJP1 oligomer from royal jelly
B1: binds ([4]; both partners purified); binds [6].
